Assay results: patent publication US6906033

Molecular target: Plasmin
Assay: enzyme inhibition

Substance | Ki
Aprotinin | 0.23 nM
Aprotinin R15, S42 | 0.17 nM
